Target: wild-type EGFR kinase domain (residues 672-998 of human EGFR) with N-terminal 6-His tag, linker and TEV site (human, UniProt P00533 672-998)
Assay: cell-based or functional assay

## SYLNGVMPPTQSFAPDPKYVSSKAL [25-residue MIG6 peptide (residues 340-364)]
  IC50, inhibition of activated EGFR kinase: ~100 µM

Reference: patent US20100323957A1 (University of California, published 2010)
